The text below walks through data of paper PMC6478609.

The experiment concerns the target TRPM8FA with the Ala805→Gly mutation (TRPM8_(FA_AG)) (collared flycatcher Ficedula albicollis) (UniProt U3JD03). As to the kind of experiment: cryo-EM structure.

As to “TRPM8FA with the Ala805→Gly mutation (TRPM8_(FA_AG)) (from UniProt U3JD03 1-1115) (natural protein)”, the stoichiometry N is 4.

Usually stoichiometry N stands for a count of units in the complex or per binding partner.
